Data published in article PMC6422423 (2019).
Where no end group is shown, it is not given here.

Molecular target: gastrin-releasing peptide receptor (UniProt P30550 1-384)
Assay: competition with 125I-GRP

Chain of gastrin-releasing peptide receptor (P30550 whole entry): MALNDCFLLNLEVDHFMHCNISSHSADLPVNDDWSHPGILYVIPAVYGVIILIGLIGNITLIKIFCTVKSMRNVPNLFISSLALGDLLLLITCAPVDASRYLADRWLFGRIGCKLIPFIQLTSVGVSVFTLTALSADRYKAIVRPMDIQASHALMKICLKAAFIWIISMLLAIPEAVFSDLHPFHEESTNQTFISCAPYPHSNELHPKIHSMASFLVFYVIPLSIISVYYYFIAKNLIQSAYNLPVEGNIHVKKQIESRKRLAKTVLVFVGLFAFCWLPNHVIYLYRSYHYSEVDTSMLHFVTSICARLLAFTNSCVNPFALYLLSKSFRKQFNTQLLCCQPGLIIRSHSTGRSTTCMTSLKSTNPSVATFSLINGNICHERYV

B1: gastrin-releasing peptide, unlabeled ligand peptide of the radioligand binding assays (peptide)
peptide: APLQPGGSPALTKIYPRGSHWAVGHLM
modifications: ends and bridges not checked
IC50: 0.2 nM

B2: neuromedin B, unlabeled ligand peptide of the radioligand binding assays (peptide)
peptide: YKIKVNPRGNLWATGHFM
modifications: ends and bridges not checked
IC50: 151 nM
